In patent US20080015137A1 one finds Kd data, which are given here for eleven substances.

The target in the experiment is Karyopherin beta2 (Kapβ2), full length, wild type (human) (UniProt Q92973). As to the kind of experiment: ITC; MBP-M9NLS(257-305) mutant titrated into full length Kapβ2. (Isothermal titration calorimetry measures the heat released or taken up as one component is titrated into another.)
Sequence of Karyopherin beta2 (Kapβ2), full length, wild type (human) (Q92973 9-898 limits assumed): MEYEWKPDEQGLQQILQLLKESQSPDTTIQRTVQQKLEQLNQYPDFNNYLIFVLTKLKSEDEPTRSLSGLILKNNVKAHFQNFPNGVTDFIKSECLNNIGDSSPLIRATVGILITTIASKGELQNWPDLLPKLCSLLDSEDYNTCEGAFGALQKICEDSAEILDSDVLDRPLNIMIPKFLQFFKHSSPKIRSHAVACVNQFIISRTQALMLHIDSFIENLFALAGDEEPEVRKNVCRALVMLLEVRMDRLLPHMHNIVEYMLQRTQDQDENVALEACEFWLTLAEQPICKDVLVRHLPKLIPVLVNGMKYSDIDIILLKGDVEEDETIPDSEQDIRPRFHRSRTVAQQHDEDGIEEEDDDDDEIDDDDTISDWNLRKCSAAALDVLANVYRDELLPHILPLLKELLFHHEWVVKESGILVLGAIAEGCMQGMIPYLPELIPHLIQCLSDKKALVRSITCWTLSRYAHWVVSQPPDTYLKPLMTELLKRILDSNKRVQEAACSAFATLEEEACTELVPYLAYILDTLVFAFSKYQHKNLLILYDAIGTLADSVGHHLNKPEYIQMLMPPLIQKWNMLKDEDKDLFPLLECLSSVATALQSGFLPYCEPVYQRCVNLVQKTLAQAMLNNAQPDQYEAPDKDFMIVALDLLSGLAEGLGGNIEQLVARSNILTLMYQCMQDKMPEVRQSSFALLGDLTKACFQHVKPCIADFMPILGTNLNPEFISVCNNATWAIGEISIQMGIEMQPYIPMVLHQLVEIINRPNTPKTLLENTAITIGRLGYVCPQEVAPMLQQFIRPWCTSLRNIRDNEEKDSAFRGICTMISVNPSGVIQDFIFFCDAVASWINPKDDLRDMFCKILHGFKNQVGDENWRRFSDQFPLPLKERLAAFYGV
As to “MBP-M9NLS(257-305) F273A (from UniProt P09651 257-305)”, the Kd (commonly the concentration at which binding is half-saturated) was 61 nM.

In the case of “MBP-M9NLS(257-305) F281A (from UniProt P09651 257-305)”, the Kd turned out to be 56 nM.

Regarding “MBP-M9NLS(257-305) G274A (from UniProt P09651 257-305)”, the dissociation constant (Kd) came to 746 nM.

“MBP-M9NLS(257-305) G274A/P288A/Y289A (from UniProt P09651 257-305)” gave a dissociation constant Kd of 5900 nM.

Substance “MBP-M9NLS(257-305) M276A (from UniProt P09651 257-305)” had a Kd of 83 nM.

The substance “MBP-M9NLS(257-305) P275A (from UniProt P09651 257-305)” displayed a Kd of 74 nM.

As for “MBP-M9NLS(257-305) P288A (from UniProt P09651 257-305)”, the dissociation constant (Kd) turned out to be 158 nM.

For the substance “MBP-M9NLS(257-305) P288A/Y289A (from UniProt P09651 257-305)”, the Kd is 136 nM.

“MBP-M9NLS(257-305) R284A (from UniProt P09651 257-305)”: the dissociation constant Kd was found to be 92 nM.

The substance “MBP-M9NLS(257-305) R284A/P288A/Y289A (from UniProt P09651 257-305)” returned a Kd of 461 nM.

Substance “MBP-M9NLS(257-305) Y289A (from UniProt P09651 257-305)” came in with a Kd of 133 nM.
